In patent US8835609B2, “Antigen binding sites to non-functional oligomeric P2X7 receptors and methods of use thereof” (Biosceptre International Limited, priority 2009, dated 2014):

Assays:
Lewis Lung (LL) tumour = experiment: Lewis Lung (LL) syngeneic xenograft model, lung metastases; type: in vivo, mouse; details: 5 mL/kg daily; Day 11
Procedure: Dosing occurred every 3 days at antibody concentrations of 1 or 10 mg/kg i.v. or with PBS for treatment control or Sorafenib at 5 mL/kg daily as a positive control in the Lewis Lung model. Mice were randomised into equal groups of 10 mice, based on tumour volume on Day 0 of the studies.
Mice were anaesthetised for blood collection and euthanised by exsanguination via terminal cardiac bleed 48 hours post-final dose, on Days 11 or 14 post-initial treatment.
The lungs were excised from all mice. Lung surface metastases were counted and were categorised according to size: small (<1 mm), medium (≧1 mm and <3 mm) and large (≧3 mm). Excised lungs were preserved in 10% neutral buffered formalin.
The syngeneic Lewis Lung model was used with additional control groups. Besides the PBS control group of ten mice (Group 1), a positive control group using daily Sorafenib at 5 mL/kg was included (Group 5) along with antibody treatment groups consisting of sheep affinity purified E200-300 polyclonal antibody at 10 mg/kg (Group 2), 2F6-hIgG1 at 1 mg/kg (Group 3) and 2F6-hIgG1 at 10 mg/kg (Group 4).

Colo205 cells = experiment: ApoOne apoptosis assay, caspase 3/7 activity; type: cell-based, human; details: for Caspase 3/7 activation: COLO205, 3 day time course, antibodies up to 40 ug/mL
Procedure: FIG. 11. Mechanism of Cell Death Induced by 2F6 with Caspase 3/7 Activation Associated with Reactivation of Apoptosis. […] In contrast, the absence of drug or antibody has no effect (cells only column).
A mode of action by which the 2F6 is able to inhibit cell growth was determined by an ApoOne apoptosis assay in which caspase 3/7 activity was measured in combination with cell growth through the Cell Titer Blue assay. Colo205 cells were grown in a 3-day growth assay with increasing 2F6 from 0-40 ug/mL. The gemcitabine positive control was added to establish the degree of apoptosis that may be elicited by the presence of bound antibody.

[1] = target: T1, non-functional receptors on live COLO-205 cells (Homo sapiens, UniProt Q99572); experiment: Flow cytometry binding to live COLO205 cells; type: cell-based; details: FLAG-tagged Fabs; anti-FLAG secondary
T1 construct: endogenous in cells; host or cells: COLO-205 (human colorectal tumour cells)
T1 sequence (Q99572 1-595): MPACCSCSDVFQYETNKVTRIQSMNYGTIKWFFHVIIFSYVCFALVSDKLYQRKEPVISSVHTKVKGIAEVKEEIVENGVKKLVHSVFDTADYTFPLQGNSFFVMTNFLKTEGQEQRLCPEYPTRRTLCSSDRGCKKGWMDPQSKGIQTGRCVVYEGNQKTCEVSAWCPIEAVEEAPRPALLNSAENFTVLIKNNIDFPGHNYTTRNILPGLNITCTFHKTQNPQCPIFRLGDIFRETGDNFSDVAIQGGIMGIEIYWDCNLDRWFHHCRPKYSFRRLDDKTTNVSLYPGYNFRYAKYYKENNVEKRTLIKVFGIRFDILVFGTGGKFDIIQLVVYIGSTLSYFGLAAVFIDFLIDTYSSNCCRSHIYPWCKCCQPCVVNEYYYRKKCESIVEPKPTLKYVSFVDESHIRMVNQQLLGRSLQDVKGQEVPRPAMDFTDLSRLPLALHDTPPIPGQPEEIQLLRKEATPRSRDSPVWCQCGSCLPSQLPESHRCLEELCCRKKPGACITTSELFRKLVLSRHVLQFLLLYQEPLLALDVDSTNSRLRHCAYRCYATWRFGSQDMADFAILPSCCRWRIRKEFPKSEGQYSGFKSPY
Description: (§1) FIGS. 19(a)-(b). (a) Flow cytometry results for binding recombinant Fabs to live colorectal COLO205 tumour cells. A Sigma anti-FLAG secondary antibody (#F4049) was used to detect the binding of the primary antibodies. WT 2F6 Fab bound weakly over the same concentration range. The EC50 for the four lead Fabs is very similar to the values obtained from ELISA measurements. (b) Very similar improved binding results were obtained for prostate PC3 cells.
(§2) Flow cytometry was used to measure the enhanced binding of selected affinity matured recombinant Fabs in human COLO-205 and PC3 cell lines over that of the starting 2F6 sequence. Recombinant FLAG-tagged Fabs were bound to cells and detected using a Sigma F4049 murine monoclonal anti-FLAG antibody conjugated to FITC used at a concentration of 1:75. Affinity purified sheep 200-300 antibody was examined for direct comparison with the 2F6 mIgG2a WT by Flow to PC3 cells.

[2] = target: T2, E200-300 epitope of P2X7 receptor (Homo sapiens, UniProt Q99572, INS205RNILPGGA); experiment: ELISA against immobilised antigen E200-300; type: binding
T2 construct: added C-terminal Cys (attachment point for BSA, DT, ovalbumin or KLH via MCS); purchased Chiron Mimotopes; host or cells: solid phase peptide synthesis
T2 sequence (Q99572 with tags, fused parts or gaps isoform Q99572-5 INS205RNILPGGA): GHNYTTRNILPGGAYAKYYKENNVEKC
Procedure: FIG. 18. ELISA of IgM, IgG2a and Fab Leads. Lead Affinity Matured 2F6-Derived Fab ELISA (scale 0.01-12.5 ug/mL for IgM and IgG2a; 0.1-100 ug/mL for Fabs).
The 2F6 VH and VL gene fragments were amplified and assembled into an E. coli expression/secretion vector. Both the 2F6 scFv and Fab were transformed into E. coli and expression of the gene construct induced. The E. coli cultures were harvested 5 hours post induction and the scFv and Fab analysed for binding using ELISA and Biacore against immobilised antigen E200-300.
Mutagenesis of the 2F6 scFv was introduced through a combination of error prone PCR, NNK randomisation and sequence length variation of HCDR3. A mutated library in the phagemid vector was of order 1×10^7. Screening of the library for higher affinity mutants employed a combination of phage display with filter expression assays using biotinylated E200-300 antigen. A selection of higher affinity scFv lead phage clones underwent small scale expression of soluble antibody fragments with affinities measured using ELISA and Biacore.

[3] = target: T3, non-functional receptors on live PC3 cells (Homo sapiens, UniProt Q99572); experiment: Flow cytometry binding to PC3 cells; type: cell-based
T3 construct: endogenous in cells; host or cells: PC3 (human prostate tumour cells)
T3 sequence (Q99572 1-595): T1 sequence (Q99572 1-595)
Description: as §1
FIG. 20. A comparison was made with various preparations of recombinant 2F6 IgG2a to determine the relative binding strength of the WT formatted antibody to PC3 cells compared with the affinity matured Fabs. Rockland IgG2a #010-001-332 was used for control to determine background (diamond).
as §2

[4] = test system: prostate PC3, colon COLO205, breast MDAMB231, melanoma A375 and breast MCF7; experiment: Cell Titer Blue assay of cell growth, range of cancer cell lines; type: cell-based; details: for cell growth: 3-day or 5-day growth, antibody 0-40 ug/mL
Procedure: (§3) FIGS. 9(a)-(d). (a) In Vitro Cell Inhibition Assays. […] Growth over 5 days is inhibited to a greater extent than over 3 days. The growth data is plotted relative to the control growth curves obtained using the control IgM antibody.
(§4) Cells were seeded at appropriate density and grown over a 3-day or 5-day period to reach a level close to confluence at the end of the test period in the presence of control antibodies and in the presence of test antibodies, either IgM or IgG2a types of 2F6 over the concentration range 0-40 ug/mL. Testing of cell line growth was conducted with seed densities ranging from 100-2000 cells/well.

[5] = test system: MCF-7 breast cancer cell line; experiment: Cell Titer Blue cell growth inhibition with peptide blocking, MCF-7; type: cell-based; details: for growth inhibition after pre-incubation of antibody with soluble peptide epitope: 3 days
Procedure: FIG. 10. Blocking Reaction in Cell Killing Assay. The Cell Titer Blue cell growth inhibition assay is used over three day cell growth with MCF-7 breast cancer cell line. Note the viable control cells in the right column have no antibody or peptide. The left hand column is the signal derived from the cells incubated with 10 ug/mL 2F6 IgM antibody containing 500 ug/mL peptide epitope (E200-300 epitope described as 200/300 in Figure), sufficient to block the cell growth inhibition evidenced by the data in the three central columns that show growth inhibition is not affected by the presence of 50 ug/mL, 5 ug/mL or 0 ug/mL peptide respectively.
as §4

COLO205 = experiment: Cell Titer Blue cell growth assay, COLO205; type: cell-based, human
Procedure: as §3, §4

MCF-7 cells = experiment: Direct cell killing, confocal microscope images; type: cell-based; details: 20 ug/mL; 24 hours exposure
Procedure: FIG. 12. Direct Cell Killing by 2F6 IgM. Confocal microscope images of MCF-7 cells in presence of control IgM antibody (a) and 2F6 IgM (b) for 24 h.

Molecule: CNC(=O)c1cc(Oc2ccc(NC(=O)Nc3ccc(Cl)c(C(F)(F)F)c3)cc2)ccn1 [Sorafenib, reference compound]
- Mean Lung Surface Mets (Lewis Lung (LL) tumour): 0.1
- inhibition of lung metastases relative to PBS control (Lewis Lung (LL) tumour): 96%

Molecule: Nc1ccn([C@@H]2O[C@H](CO)[C@@H](O)C2(F)F)c(=O)n1 [Gemcitibine, gemcitabine, reference compound]
- Caspase 3/7 activation (Colo205 cells): activate caspases

B1: WT Fab: recombinant Fab of wildtype 2F6 expressed in E. coli (antibody, V domains shown)
VH: DVKLVESGGGLVKLGGSLKLSCAASGFTFSSYYMSWVRQTPEKRLELVAAINSNGGSTYYPDTVKGRFTISRDNAKNTLYLQMSSLKSEDTAFYYCTRHYSSRFFDVWGAGTTVTVSS
VL: MADIVMTQSQKFMSTSVGDRVSVTCKASQNVGTNVAWYQQKPGQSPKALIYSASFRYSGVPDRFTGSGSGTDFTLTISNVQSEDLAEFFCQQYNSYPFTFGSGTRLEIK
- binding to live COLO205 cells [1]: bound weakly
- binding compared with selected affinity matured leads ([2]; ELISA, Fab format): much lower (2-logs) binding
- EC50 (ELISA) ([2]; scale 0.01-12.5 ug/mL for IgM and IgG2a, 0.1-100 ug/mL for Fabs): very low EC50

B2: 2F6 IgG2a: 2F6 VH and VL chains spliced into a mouse IgG2a sequence, expressed in HEK293 cells (antibody, V domains shown)
VH: B1 VH
VL: B1 VL
- binding to PC3 cells [3]: comparable to the binding elicited by the lead Fabs
- cell growth [4]: inhibited cell growth
- cell growth inhibition compared with the IgM form ([4]; over 3 days): weaker cell inhibition

B3: 2F6 IgM: hybridoma clone 2F6, mouse IgM with Kappa light chains, raised to P2X7 E200-300; CDR3 HYSSRFFDV (antibody, V domains shown)
VH: B1 VH
VL: B1 VL
modifications: IgM constant regions
notes: hybridoma clone 2F6, mouse IgM with Kappa light chains, raised to P2X7 E200-300; CDR3 …
- Caspase 3/7 activation (Colo205 cells): steady increase
- antibody concentration sufficient to initiate full caspase 3/7 (apoptosis) activity (Colo205 cells; Colo205, 3-day growth assay): 20 to 40 µg/mL
- growth inhibition after pre-incubation of antibody with soluble peptide epitope ([5]; 10 ug/mL antibody, E200-300 peptide 500 ug/mL): no longer able to affect cell growth
- growth inhibition after pre-incubation of antibody with soluble peptide epitope ([5]; 10 ug/mL antibody, E200-300 peptide 5-50 ug/mL): no effect on the inhibition
- MCF7 cell growth ([5]; 10 ug/mL antibody, over 3 days): greatly inhibits cell growth
- MCF-7 cell growth ([5]; after 5 days of exposure): Total inhibition of cell growth
- COLO205 growth (COLO205; over 3 days, relative to control IgM): significantly inhibited
- COLO205 cells (COLO205; over 5 days, even at low dose of 2.5 ug/mL): eliminated
- cell death (confocal images) (MCF-7 cells): many cells are already dead
- cell growth [4]: inhibited cell growth
